Experimental data as given in US6790444.

Assays:
[1] = target: T1, human lymphotoxin (TNFβ) (human, UniProt P01374 35-205, limits assumed); test: cell-based or functional assay
T1 sequence (looked up): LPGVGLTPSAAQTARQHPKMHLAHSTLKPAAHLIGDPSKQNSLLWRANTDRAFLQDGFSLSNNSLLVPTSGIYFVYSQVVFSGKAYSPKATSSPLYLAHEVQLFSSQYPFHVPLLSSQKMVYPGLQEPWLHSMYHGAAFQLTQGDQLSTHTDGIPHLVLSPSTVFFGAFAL

[2] = target: human tumor necrosis factor-α (TNFα) (human) (UniProt P01375); test: cell-based or functional assay
Sequence of human tumor necrosis factor-α (TNFα) (human) (P01375 77-233): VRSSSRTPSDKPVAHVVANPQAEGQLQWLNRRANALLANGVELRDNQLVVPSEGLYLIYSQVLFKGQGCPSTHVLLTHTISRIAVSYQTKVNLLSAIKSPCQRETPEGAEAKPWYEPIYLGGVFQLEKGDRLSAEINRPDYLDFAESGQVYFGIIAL

Molecule: p55-sf2 (p55 TNF receptor / IgG1 heavy chain single fusion with truncated light chain JCK) (from UniProt P19438 32-188) (Fc fusion)
- amount needed for the same degree of inhibition of TNFβ cytotoxicity, against p75P-sf2 [1]: 3 fold

B1: chimeric mouse/human IgG1 anti-platelet mAb (7E3) (antibody, INN chains, looked up, V domains shown)
VH: EVQLQQSGTVLARPGASVKMSCEASGYTFTNYWMHWVKQRPGQGLEWIGAIYPGNSDTSYIQKFKGKAKLTAVTSTTSVYMELSSLTNEDSAVYYCTLYDGYYVFAYWGQGTLVTVSA
VL: EIVLTQSPVTLSVTPGDSVSLSCRASRDISNNLHWFQQTSHESPRLLIKYASQSMSGIPSRFSGSGSGTDFTLSINSVETEDFGMYFCQQTNSWPYTFGGGTKLEIK
modifications: chimeric IgG1
- IL-6 secreted by FS-4 fibroblasts; 0.3 ng/ml rhTNF, 4 µg/ml antibody [2]: 1.6 ng/mL
- IL-6 secreted by FS-4 fibroblasts; 1.5 ng/ml rhTNF, 4 µg/ml antibody [2]: 1.96 ng/mL
- IL-6 secreted by FS-4 fibroblasts; 7.5 ng/ml rhTNF, 4 µg/ml antibody [2]: 2.16 ng/mL

B2: p75-sf2 (complete p75 extracellular domain fused to the IgG1 heavy chain) (Fc fusion)
chain: QLPAQVAFTPYAPEPGSTCRLREYYDQTAQMCCSKCSPGQHAKVFCTKTSDTVCDSCEDSTYTQLWNWVPECLSCGSRCSSDQVETQACTREQNRICTCRPGWYCALSKQEGCRLCAPLRKCRPGFGVARPGTETSDVVCKPCAPGTFSNTTSSTDICRPHQICNVVAIPGNASMDAVCTSTSPTRSMAPGAVHLPQPVSTRSQHTQPTPEPSTAPSTSFLLPMGPSPPAEGSTGDGTLVTVSS
- amount needed for the same degree of inhibition of TNFβ cytotoxicity, against p75P-sf2 [1]: 3 fold
